Where “and” joins values, the source holds several entries; their conditions need not be identical. Equal entries are not always repeated. Where two headings read alike, the source gives them in different places.
T1: human 5T4-His protein (human, UniProt Q13641 32-355)
T1 construct: also called recombinant 5T4 protein (human 5T4-his tag); human 5T4 protein; not shown: His tag
T1 sequence (looked up): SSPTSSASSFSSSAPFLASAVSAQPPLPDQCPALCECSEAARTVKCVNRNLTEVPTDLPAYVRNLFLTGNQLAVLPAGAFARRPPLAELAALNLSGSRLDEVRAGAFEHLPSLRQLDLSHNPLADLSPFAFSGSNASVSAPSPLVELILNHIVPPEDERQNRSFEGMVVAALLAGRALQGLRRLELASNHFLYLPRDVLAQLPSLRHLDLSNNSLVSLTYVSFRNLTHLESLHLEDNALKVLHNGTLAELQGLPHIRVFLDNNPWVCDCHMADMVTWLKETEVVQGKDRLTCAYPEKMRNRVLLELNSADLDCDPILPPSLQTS

T2: cynomolgus 5T4 protein (cynomolgus monkey, UniProt Q4R8Y9 35-355, limits assumed)
T2 construct: Coated protein in ELISA; the screening step names a cyno 5T4-His protein; also called cyno 5T4; recombinant cyno 5T4-His protein
T2 sequence (looked up): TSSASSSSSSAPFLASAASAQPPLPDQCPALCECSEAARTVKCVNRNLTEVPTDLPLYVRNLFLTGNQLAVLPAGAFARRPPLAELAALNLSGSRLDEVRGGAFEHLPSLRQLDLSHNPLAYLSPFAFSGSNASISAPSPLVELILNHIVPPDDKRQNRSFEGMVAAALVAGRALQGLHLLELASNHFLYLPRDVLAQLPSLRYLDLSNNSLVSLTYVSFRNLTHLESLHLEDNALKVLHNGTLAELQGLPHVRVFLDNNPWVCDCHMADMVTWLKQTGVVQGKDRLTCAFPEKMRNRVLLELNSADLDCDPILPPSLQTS

T3: human 5T4 expressed on cells (human, UniProt Q13641 32-420)
T3 construct: whole, on cells; also called CHOK1-hu5T4; CHO-K1-expressing human 5T4
T3 sequence (looked up): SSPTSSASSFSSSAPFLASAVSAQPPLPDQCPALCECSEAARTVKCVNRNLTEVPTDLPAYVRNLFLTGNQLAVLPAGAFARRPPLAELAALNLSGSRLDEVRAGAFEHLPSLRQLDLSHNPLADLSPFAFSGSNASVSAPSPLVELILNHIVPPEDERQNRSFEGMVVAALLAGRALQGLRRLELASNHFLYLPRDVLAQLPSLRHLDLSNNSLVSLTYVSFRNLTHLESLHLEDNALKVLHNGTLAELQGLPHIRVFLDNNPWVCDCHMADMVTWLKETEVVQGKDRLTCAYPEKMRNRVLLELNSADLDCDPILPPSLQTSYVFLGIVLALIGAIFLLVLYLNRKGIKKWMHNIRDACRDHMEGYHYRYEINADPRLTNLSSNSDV

B1: 113H5 chimeric antibody (antibody, V domains shown)
VH: DVQLQESGPGLVKPSQSLSLTCSVTGYSITSGYYWNWIRQFPGNKLEWMGYINSDGSNNYNPSLKNRISITRDTSKNQFFLKLNSVTTEDTATYYCAREEYDYWFAYWGQGTLVTVSA
VL: DIVMTQSQKFMSTSVGDRVSVTCKASQNVGTNVAWYQQKPGQSPKALIYSASNRYSGVPDRFTGSGFGTDFTLTISNVQSEDLTEYFCQQYNSYPYTFGGGTNLEIK
notes: chimeric mAb
B2: 393E9 chimeric antibody (antibody, V domains shown)
VH: EVKLVESGGGLVQPGGSLSLSCAASGFTFTDYYMSWVRQPPGKALEWLGFIRNKGNGYTTENSASVKGRFTISRDNSQSILYLQMNALRAEDSATYYCARYRGNPHYAMDYWGQGTSVTVSS
VL: DIVLTQFPASLAVSLGQRATISCRASESVEFYGTSFLQWYQQKPGQPPKLLIYGASNVESGVPARFSGSGSGTDFSLSIHPVEEDDIAMYFCQQSRKVPSTFGGGTKLEIK
notes: chimeric mAb
B3: 14G12 chimeric antibody (antibody, V domains shown)
VH: EVQLQQSGPELVKPGASVKISCKASGYAFSSSWMNWVKQRPGKGLEWIGRIYREDGHTNYNGKFKGKATLTADKSSTTAYMQLTSLTSEDSAVYFCANGGAMDYWGQGTSVTVSS
VL: DIQMTQSTSSLSASLGDRVTISCRASQDISNYLNWYQQKPDGTVKLLIYYTSRLHSGVPSRFSGSGSGTDYSLTISNLEQEDIATYFCQQDNTLPWTFGGGTKLEIK
notes: chimeric mAb
B4: 257F1 chimeric antibody (antibody, V domains shown)
VH: QVLLQQSGAEVARPGASVKLSCKASGYTFTSYGLNWLRQRTGQGLEWIGEIYPRSENTHYNEKFKGKATLTADKSSSTAYMELRSLTSEDSAVYFCARGDWDFDHWGQGTTLTVSS
VL: EILLTQSPAIIPASPGEKVTITCSASSSVSYMNWYQQKPGSSPKIWIYGISNLASGVPARFSGSGSGTFFSFTINSMEAEDVATYYCQQRSSYPRTFGGGTKLEIK
notes: chimeric mAb
B5: Hu286B4-10 (antibody, V domains shown)
VH: EVQLQESGPGLVKPSDTLSLTCAVSGYSISNNYYWNWIRQPPGKGLEWIGYITYDGSNNYNPSLKNRITMSRDTSKNQFSLKLSSVTAVDTAVYYCARGGGQLRFDYWGQGTTVTVSS
VL: SIVMTQSPSSLSASVGDRVTITCKASQSVSNEVTWYQQKPGKSPKMLIYYASNRYTGVPDRFSGSGYGTDFTFTISSLQPEDIATYFCQQDYSSPWTFGGGTKVEIK
notes: humanized
B6: 24F10 chimeric antibody (antibody, V domains shown)
VH: EVQLVESGGGLVKPGGSLKLSCAASGFTFSDYGMHWVRQAPEKGLEWVAYISSGTSTIYYTDTVKGRFTISRDNAKNTLFLQMTSLRSEDTAMYYCARGGDGYYRSTMDYWGQGISVTVSS
VL: DIVLTQSPASLAVSLGQRATISCRASQSVSSSSYSYMHWYQQKPGQPPKLLIKSASNLASGVPARFSGSGSGTDFTLNIHPVEEEDSATYYCQHSWEVPRTFGGGTKLEIK
notes: chimeric mAb

Columns and labels:
[1] = molecular target: T1, human 5T4-His protein; assay: competitive ELISA, coated human 5T4, vs naptumomab-biotin
[2] = molecular target: T1, human 5T4-His protein; assay: SPR Biacore, Protein A capture
Experimental: The binding of the chimeric mAbs from these clones against recombinant 5T4 protein (human 5T4-his tag) was tested with Biacore using a capture method. The mAbs were captured using Protein A chip. A serial dilution of human 5T4-his tag protein was injected over captured antibody for 2-3 mins at a flow rate of 30 μl/min. The antigen was allowed to dissociate for 360-1000 s. All the experiments were carried out on a Biacore T200. Data analysis was carried out using Biacore T200 evaluation software.

[3] = molecular target: T1, human 5T4-His protein; assay: ELISA, coated antigen
[4] = molecular target: T2, cynomolgus 5T4 protein; assay: ELISA, coated antigen
[5] = molecular target: T1, human 5T4-His protein; assay: SPR Biacore, Protein A capture; remark: listed apart in the source
Experimental: The binding of the 393E9 humanized antibodies to recombinant 5T4 protein (human 5T4-his tag) was tested with Biacore using a capture method. The mAbs were captured using Protein A chip. A serial dilution of human 5T4-his tag protein was injected over captured antibody for 3 mins at a flow rate of 30 μl/min. The antigen was allowed to dissociate for 280-800 s. All the experiments were carried out on a Biacore T200. Data analysis was carried out using the Biacore T200 evaluation software.

[6] = molecular target: T3, human 5T4 expressed on cells; assay: flow cytometry, CHOK1-hu5T4 cells
[7] = molecular target: T1, human 5T4-His protein; assay: ELISA, coated 5T4-His
Experimental: To evaluate the binding activity of 393E9 humanized antibodies to human 5T4, the 393E9 chimeric antibody (393E9-C) along with 393E9 humanized mAbs were subjected to ELISA test.
Briefly, microtiter plates were coated with human 5T4-His protein at 1 μg/ml in PBS, 100 μl/well at 4° C. overnight, then blocked with 150 μl/well of 1% BSA. 4-fold dilutions of antibodies starting from 20 nM were added to each well and incubated for 1 hour at 37° C. The plates were washed with PBS/Tween and then incubated with Goat Anti-Human IgG-HRP for 30 mins at 37° C. After washing, the plates were developed with TMB substrate and analyzed by spectrophotometer at OD 450 nm. As shown in FIG. 12 and Table 9, most of the humanized antibodies bound to human 5T4 with high activity.

[8] = molecular target: T1, human 5T4-His protein; assay: competitive ELISA, coated human 5T4, vs naptumomab-biotin; remark: listed apart in the source
[9] = molecular target: T1, human 5T4-His protein; assay: as above; remark: listed apart in the source
[10] = molecular target: T1, human 5T4-His protein; assay: SPR Biacore, Protein A capture; remark: listed apart in the source
Summary of the method: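 Humanized 14G12 antibodies captured on a Protein A chip; serial dilutions of human 5T4-His injected for 120 s-180 s at 30 μl/min, with dissociation over 360 s-1000 s on a Biacore T200.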

[11] = molecular target: T1, human 5T4-His protein; assay: competitive ELISA, coated human 5T4, vs 257F1-biotin
[12] = molecular target: T1, human 5T4-His protein; assay: as above; remark: listed apart in the source
[13] = molecular target: T1, human 5T4-His protein; assay: as above; remark: listed apart in the source
Experimental: Competitive ELISA was carried out to classify the test 5T4 mAbs based on the binding epitope to human 5T4.
Briefly, microtiter plates were coated with human 5T4 proteins at 0.5 μg/ml in PBS, 100 μl/well at 4° C. overnight, then blocked with 150 μl/well of 1% BSA. Serial dilutions of chimeric antibodies as well as 0.2 ug/ml biotin-conjugated reference mAb were added to each well and incubated for 1 hour at RT. The plates were washed with PBS/Tween and then incubate with streptavidin-HRP for 15 mins at RT. After washing, the plates were developed with TMB substrate and analyzed by spectrophotometer at OD 450 nm. According to the competition performance with reference mAbs, the 5T4 mAbs were divided into four bins (Bin A-D), as shown in FIG. 3-8 and Table 4.

[14] = molecular target: T1, human 5T4-His protein; assay: ELISA, coated 5T4-His; remark: listed apart in the source
Summary of the method: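 Plates coated overnight at 4° C with 1 μg/ml 5T4-His, blocked with 1% BSA. Antibodies in 4-fold dilutions from 20 nM, 1 h at 37° C; bound antibody detected with anti-human IgG-HRP (30 min, 37° C), TMB development, OD 450 nm.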

[15] = molecular target: T1, human 5T4-His protein; assay: ELISA, coated human 5T4
Experimental: To evaluate the binding activity of clones, the 286B4 chimeric antibody along with 286B4 humanized mAbs were subjected to ELISA test.
Briefly, microtiter plates were coated with human 5T4-His protein at 1 μg/ml in PBS, 100 μl/well at 4° C. overnight, then blocked with 150 μl/well of 1% BSA. 4-fold dilutions of tested antibodies starting from 20 nM were added to each well and incubated for 1 hour at 37° C. The plates were washed with PBS/Tween and then incubated with Goat Anti-Human IgG-HRP for 30 mins at 37° C. After washing, the plates were developed with TMB substrate and analyzed by spectrophotometer at OD 450 nm. As shown in FIG. 16 and Table 15, most of the humanized clones bound to human 5T4 with high potency.

[16] = molecular target: T1, human 5T4-His protein; assay: SPR Biacore, Protein A capture; remark: listed apart in the source
[17] = molecular target: T1, human 5T4-His protein; assay: competitive ELISA, coated human 5T4, vs 159D5-biotin

Binder | Kd [2] [nM] | koff [2] [s⁻¹] | kon [2] [M⁻¹ s⁻¹] | EC50 [3] [nM] | EC50 [4] [nM] | further results
B1 | 0.552 | 0.000192 | 348000 | 0.52 | 0.82 | IC50 (read off the curve) [1]: ~6 nM
B2 | 0.0565 | 0.000183 | 3.24e+06 | 0.37 | 0.14 | Kd [5]: 0.463 nM; koff [5]: 0.000107 s⁻¹; kon [5]: 231000 M⁻¹ s⁻¹; EC50 (read off the curve) [6]: 5 nM; EC50 [7]: 0.27 nM and 0.13 nM and 0.23 nM; IC50 (read off the curve) [8]: ~5 nM
B3 | 0.413 | 0.000222 | 538000 | 0.19 | 0.17 | IC50 (read off the curve) [9]: ~4 nM; Kd [10]: 0.839 nM and 0.537 nM; koff [10]: 0.000336 s⁻¹ and 0.00033 s⁻¹; kon [10]: 401000 M⁻¹ s⁻¹ and 615000 M⁻¹ s⁻¹
B4 | 1.48 | 0.000275 | 186000 | 0.56 | 0.11 | IC50 (read off the curve) [11]: ~8 nM; IC50 (read off the curve) [12]: ~7 nM; IC50 (read off the curve) [13]: ~10 nM
B5 |  |  |  |  |  | EC50 [14]: 2.61 nM; EC50 (read off the curve) [15]: ~0.08 nM; Kd [16]: 1.93 nM; koff [16]: 0.000204 s⁻¹; kon [16]: 106000 M⁻¹ s⁻¹
B6 | 0.302 | 0.000126 | 418000 | 0.18 | 0.21 | IC50 (read off the curve) [17]: ~9 nM
